In the supplement of paper PMC9170038:

Test system: K4 kissing-loop RNA reporter
Test: apparent KD of K4 kissing-loop reporter; higher = weaker reporter binding
Details: Eterna round: R107
Protocol: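 RNA-MaP round R107: designed RNA switches with theophylline, tryptophan, arginine or FMN aptamers are transcribed on-chip within common flanks. They are titrated with a labelled K4 kissing-loop RNA reporter in RNA-MaP buffer (100 mM Tris pH 7.5, 80 mM KCl, 4 mM MgCl2), without ligand or with the indicated ligand. Median apparent KD per design.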

[1] = input ligand: theophylline 20 uM
[2] = input ligand: tryptophan 2.4 mM
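Further: bound reporter read as fluorescence of individual clusters on recovered sequencing chips by microscopy, with normalized cluster intensities fitted with a binding model.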

Row | Sequence | apparent KD of K4 kissing-loop reporter (input ligand: FMN 200 uM) | apparent KD of K4 kissing-loop reporter (input ligand: arginine 13.2 mM) | apparent KD of K4 kissing-loop reporter (input ligand: none) | apparent KD of K4 kissing-loop reporter [1] | apparent KD of K4 kissing-loop reporter [2]
1 | CUUAAGAUAUGAGUGAUGUUUAUGUCCGAAGGAGCGUGCGAAAGUACAGGUAGGUCGCGGAUGUGAGUGAUGUUCAUGUAAGCGA [KL-XArg-A13 #analogue] | 132 nM | 87.9 nM | 114 nM | 109 nM | 106 nM
2 | GGAUCCACCAGUGAUGUUGGAGAAAACUCCAAGGAUAUGACGAAAGUCAGAAGGUGGUAGACUGGACAAAGUCCGGUCGGAUCCA [FmnA 23 #SwitchBubble #K4Early] | 719 nM | 113 nM | 126 nM | 68.1 nM | 160 nM
3 | CCGACUGCAGGAAGGAGCGGCGGUUGGAGUGAUGUUCCAGGUAGUGAUGUUACCAAGAUCCGCCAGGUAGGUCGCCUGUUGCUCA [Same State Arginie B GF 12] | 156 nM | 106 nM | 115 nM | 148 nM | 125 nM
4 | CCUAUCUCAUACGAUACCAGUCCGAGUGAUGUUCGAACAGGUUUUAGUUUGCCAUAUAAUGACCCUUGGCAGCGUAUGGGAUAGG [Ex Theophylline B K4 13] | 167 nM | 123 nM | 163 nM | 130 nM | 137 nM
5 | AGGCCGAGCCAAGGAUAUUGUCAGAGUGAUGUUCGCCAAUACUCCAGCCGCGCCUCAUCAGCUGAGCAAGAAGGUGGUCCUCUCA [theeternabot_exclusion_KL_FMN_B_47] | 244 nM | 199 nM | 221 nM | 207 nM | 209 nM
6 | CGCAGUGAUGUUGCGAGUAACUACAGGGAAGGAGCGUGCUAAAGCACAGGUAGGUCGCCCAUGCAGUGAUGUUGUGUAAAAGGGU [Excluson Arginine A GF 13] | 102 nM | 98.6 nM | 106 nM | 118 nM | 90.8 nM
7 | UAUUCUGUUCGAAAGAACGGAAUUUCGGAAGGAGCGAGAGAAAUCUCAGGUAGGUCGCCGAAAUUAUUAGGUAGUGAUGUUACCU [Arginine A K4 5] | 126 nM | 116 nM | 142 nM | 124 nM | 123 nM
8 | GUACCUUGGAAACAAGGACAGCUAACCGAAGGAGCGCGUGAAAACGCAGGUAGGUCGCGGUAGCGGAGUGAUGUUCCGCGAGAGC [Same State Arginine A GF 19] | 114 nM | 85.8 nM | 88.8 nM | 103 nM | 108 nM
9 | GGUAGCAUGGCGGCCGCCACUCUUCAUUAGUGAUGUUAAUGCCGAGUGCGCUAACUCCAACAGGAGAGGACCGGGCCAUGCUACC | 532 nM | 445 nM | 501 nM | 760 nM | 98.8 nM
10 | GGCCGGAAGGCGGCCGCCACUCAGUGAUGUUGUGUGAAAGAAAAGAAAAGAAGAAAGAAAAGAAAGAGGACCGGGCCAAACGGCC | 257 nM | 224 nM | 504 nM | 643 nM | 580 nM
11 | UGAUACCAGACUGAUACCAGCAGUGAUGUUGCUGAAAAUAAUAAAUGAGUCAAAGACUCGGGCCCUUGGCAGCAGUCUGGUAUCU [TheoBX 8 #SwitchBubble #StaticStem] | 111 nM | 114 nM | 116 nM | 117 nM | 95.9 nM
12 | GCCGUAGAUUGAAGGAGCGUGGAACUAUGGCUUGAACAGUGAUGUUGUUUAUCUAGGUAGCCACAGGUAGGUCGCAAUCUACGGC | 266 nM | 201 nM | 234 nM | 182 nM | 178 nM
13 | UGACUGGACUGAAGGAGCGGGCGAGACAAAGUCUCGAACUCGUAGUGAUGUUACGAAAUAACCCAGGUAGGUCGCAGUCUAGUCU | 77.8 nM | 62 nM | 74.9 nM | 67.2 nM | 74.9 nM
14 | CGGCGUGCCUUAUCCUCAUCUCUGACUCAACGAGGACCGGUACGGCCGCCACUCGGAAGAGGCAGUGAUGUUGCCUACGCCGGUG [Oronat] | 76.3 nM | 82.7 nM | 77.3 nM | 82.3 nM | 81.4 nM
15 | GUAGACAGACUGCAAGCCUAGUCUACAGACUAGGAUAUCAGGAAACUGAGAAGGAGUCUACUUGCAGUGAUGUUGCAAGAAUAAU [[F]''-[K]'-[F]'-[F1]-[F2]-[K1]-[K2]_Design4] | 146 nM | 126 nM | 121 nM | 111 nM | 119 nM
16 | UGGUCUGCACGAAGGAGCGCCCUGACAGGUUGCUGCCGUGGGCAGUGAUGUUGCUUAGUCCGGCAGGUAGGUCGCGUGCAGACCA | 210 nM | 205 nM | 243 nM | 189 nM | 170 nM
17 | CCAAACAGUUACGAUACCAGUCUAAUAUAUUUGAUCAAAACCCUCGCCGAGUGAUGUUCGGACCCUUGGCAGCGUCUGGGACAGG [zzbtmullin] | 479 nM | 378 nM | 500 nM | 414 nM | 371 nM
18 | CUUGAUGGAAACAUCGAGUAUUUCACUGAUACCAGUAUCGAUAGAUACCCUUGGCAGCAGGAUCAGUGUUUACGAGUGAUGUUCG [Ex Theophylline A K4 9] | 444 nM | 408 nM | 451 nM | 380 nM | 376 nM
19 | UGUCAUUGGUCGGCCGCCACUUCAUGUAGAGUGAUGUUCUGUAGGACGGAUCGAAAGAUCUGUCGAAGGACCGGGACCGAUGACU [FiskerMod 14 - Jieux - Same State - Tryptophan B] | 818 nM | 725 nM | 1180 nM | 727 nM | 272 nM
20 | AGUUAUGUUGCGGCCGCCACUGCGCGAGUGAUGUUCGUGGCAUAUAUAAUGUUAUAUAUGCAUCACAGGACCGGGCGGCAUAGCG [Same State - Tryptophan B] | 512 nM | 313 nM | 375 nM | 329 nM | 152 nM
21 | AUUUUGGUUUAGAGUGAUGUUCCUUGUAUUCGAGGACCGGUACGGCCGCCACUCGAAUAGAAAAGAAAAGAAAUGAGUGAUGUUU [BDazzled - #4 SS Tryptophan A] | 519 nM | 267 nM | 362 nM | 357 nM | 356 nM

Row | Sequence | apparent KD of K4 kissing-loop reporter (input ligand: FMN 200 uM) | apparent KD of K4 kissing-loop reporter (input ligand: arginine 13.2 mM) | apparent KD of K4 kissing-loop reporter (input ligand: none) | apparent KD of K4 kissing-loop reporter [1] | apparent KD of K4 kissing-loop reporter [2]
22 | AAGGCCACGAGAAGGAGCGUGCUAUGGAGUGAUGUUCCAGUGUAGACCUAAGGUCUACACGCACAGGUAGGUCGCUCGUGGUCAA [Omei KL Arginine B SS A v1] | 209 nM | 186 nM | 203 nM | 238 nM | 186 nM
23 | UGUAUGGACUGAAGGAGCGCUAGGAAAGUGAGUGAUGUUCAUAUAAAAGUAUAAAGGGUUUGGCAGGUAGGUCGCAGUCCAUACU [KL-SSArg B5] | 225 nM | 344 nM | 234 nM | 270 nM | 135 nM
24 | AUUUAUCCGUCCAGCUGAGUGAUGUUUAGCCGAGGACCGGUACGGCCGCCACUCGUAAGAACCUGUUACGUUGGCUCCUGUGGUG [theeternabot_exclusion_KL_Trp_A_49] | 244 nM | 196 nM | 286 nM | 201 nM | 353 nM
25 | CAUACGCAUGGAGGAUAUGAGAUUUCUCAUAUUAUUGCUUAUUCUCAGUGAUGUUGGGAUUUAAGCUCAGAAGGCCAUGUGUAUG [Ex FMN B 10] | 187 nM | 88.4 nM | 98 nM | 94.2 nM | 85.8 nM
26 | UAUUAAUUGUCAGGAUAUCGAAAUCGAGUGAUGUUCGUAUAUCGACGAUAGUCGAUAUUAUUUAUACGAGAAGGGACAUUAUUUA [JR_SSFMNB_Sub003] | 347 nM | 572 nM | 615 nM | 615 nM | 386 nM
27 | GGGAGCAAAGCUCCCGGAUGCUAUAGUCAGGAGGAUAUCUGGAAACAGAGAAGGCCUAAGCCAGUGAUGUUGGCUAUAAGCAUCC | 475 nM | 406 nM | 757 nM | 629 nM | 589 nM
28 | UGACUGGACUGAAGGAGCGCUAAACUCCUAGUGAUGUUAGGAAAUACGAGACAAAGUCUCGGGCAGGUAGGUCGCAGUCUAGUCU [ArgBS 19 #SwitchBubble #StaticStem] | 122 nM | 118 nM | 132 nM | 128 nM | 101 nM
29 | UAGUCCUAGUGAUGGUCAUCACGUGGUGGGCGAGGACCGGUACGGCCGCCACUCGACUUUGCAGUGAUGUUGCAAACCGGACAAU [Exclusion - Tryptophan A (Freestyle 19)] | 333 nM | 322 nM | 311 nM | 354 nM | 298 nM
30 | CAACAGCUUACGGCCGCCACUCCUUUAUAUGGUGCGCACCGUUGAGCUCUAGUGAUGUUGGUGCCGAGGACCGGGUAGGAAAGUA [theeternabot_sameState_KL_Trp_B_31] | 468 nM | 245 nM | 331 nM | 448 nM | 412 nM
31 | UCUGGAGGAUAUGAUACCAGCAGUGAGAGAGAGGAAGUAUAGUGAUGUUAUAUGAGAGAAUGCCCUUGGCAGCGUGUGUAGUGGG [SSTheophylB.L] | 175 nM | 137 nM | 135 nM | 151 nM | 86.6 nM
32 | UUGUUUGGUUGAGAGGUUGGGCGAGAUGAUACCAGUAUAGAAGAGUACCCUUGGCAGCAUAGGAGAGAUAUAGUGAUGUUGUAUG [SSTheophA.T] | 437 nM | 355 nM | 480 nM | 494 nM | 333 nM
33 | UGCCGCAAGGCGAGCGCUCCCACUCCGGAAGGAGCGCCCGUAAGGGCAGGUAGGUCGCCGGAGUGAUGUUCCGGUGGAGGGCUCG [#2 Exclusion - Arginine A Attempt #24 (Inspired by Omei)] | 1270 nM | 283 nM | 537 nM | 398 nM | 351 nM
34 | CCUUCCUAAAACGAUACCAGUUUCUAUCCUCAAUCCAGUGAUGUUGAAUUGAGCUCACAGAACCCUUGGCAGCGUCGCUAUACGG [theeternabot_sameState_KL_Theo_B_39] | 214 nM | 202 nM | 195 nM | 180 nM | 190 nM
35 | UGAUAGGACAGAAGGAGCGGAAGUGAUGUUUCCAAAAGAUAUGGUCGACAAAGUCGACUUUUCCAGGUAGGUCGCUGUCCUAUCU [KL-XARG-B18] | 60.4 nM | 90.1 nM | 67.1 nM | 84.1 nM | 66.6 nM
36 | ACGCUUGAAUAACAAGCGAAAUAAAAUUCGCGAGGACCGGUACGGCCGCCACUCGCUAACUGCGAGUGAUGUUCGAUAAUAAAAU [Mat - Mod of OpenEnded 3 - D16] | 139 nM | 80.2 nM | 129 nM | 208 nM | 69.1 nM
37 | UGAUAGGACAGAAGGAGCGGAAUGCUGUCCAAAAGGACAGCAAAUAUAACAGGAGUGAUGUUCCAGGUAGGUCGCUGUCCUAUCU [ArgBX 21 #SwitchBubble #StaticStem] | 246 nM | 197 nM | 214 nM | 199 nM | 187 nM
38 | CCAUCGCUAUUCGAUACCAGCUACUUAGUGAUGUUAAGUUAAAAUCAAUUGUAGAUUGAAAGCCCUUGGCAGCGAAUAGUGAUGG [Theophylline B K4 21] | 157 nM | 123 nM | 139 nM | 83.8 nM | 135 nM
39 | GGAGUUACCUGGGAUACCAGUCGGAGUCUCAGAGCACAGAGUGAUGUUCUGGGAUGUUUCGGCCCUUGGCAGCUCUGGGACUCCA [#2 Exclusion - Theophylline B Attempt #14 (HarryS)] | 386 nM | 359 nM | 403 nM | 265 nM | 351 nM
40 | AUACGUUUAAGUGAUACCAGACAUGUGAGUGAUGUUUACAAAUAAAUUAAAUUUUUAGCUGUCCCUUGGCAGCACAGUUUAUUUA [JR_ExcTheophyB_Sub002] | 516 nM | 517 nM | 594 nM | 610 nM | 430 nM
41 | UGACUGGAUUGAAGGAGCGCUAAACUCCUAGUGAUGUUAGGGAAACAAGACAAAGUCUUGAGGCAGGUAGGUCGCAAUCUAGUCU [FiskerMod 4 - Jieux - Same State - Arginine B] | 182 nM | 149 nM | 173 nM | 234 nM | 175 nM
42 | AGAUUCGACACGGCCGCCACUCGUGGUGGAUUACCGAGUGUCGAAGUUGAGUGAUGUUCAAGUACGAGGACCGGGUGUUGAGUCU [KL-XTryp-B9 #analogue] | 193 nM | 204 nM | 198 nM | 163 nM | 435 nM
